Laboratory results taken from the supplement of paper PMC9112550, “Optimization of the antimicrobial peptide Bac7 by deep mutational scanning” (BMC Biology, 2022).

test system: Escherichia coli TOP10; experiment: shrunken log2 fold change of peptide-encoding DNA abundance (4.5 h post-induction vs induction); higher = less antimicrobial activity (less host growth inhibition); conditions: time post-induction: 4.5 h; library: site-saturation at positions 5, 18, 19, 20
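Further: peptides expressed intracellularly from a pBAD plasmid library in pooled LB shake-flask culture, induced with 0.3% L-arabinose, DNA abundance read by NGS, three biological replicates, DESeq2 with apeglm shrinkage.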

| Sequence | shrunken log2 fold change |
| --- | --- |
| RRIRNRPPRLPRPRPRPIWNPRP | -0.146 |
| RRIRYRPPRLPRPRPRPGSIPRP | -0.606 |
| RRIRHRPPRLPRPRPRPHPVPRP | -0.248 |
| RRIRPRPPRLPRPRPRPQCRPRP | 0.00385 |
| RRIRMRPPRLPRPRPRPPDDPRP | 0.0932 |
| RRIRYRPPRLPRPRPRPRFEPRP | -0.386 |
| RRIRQRPPRLPRPRPRPEMVPRP | -0.0549 |
| RRIRSRPPRLPRPRPRPANRPRP | 0.223 |
| RRIRMRPPRLPRPRPRPKSNPRP | 0.815 |
| RRIRSRPPRLPRPRPRPTKLPRP | 0.0448 |
| RRIRMRPPRLPRPRPRPNMWPRP | 0.0353 |
| RRIRRRPPRLPRPRPRPQVLPRP | 0.0646 |
| RRIRVRPPRLPRPRPRPWQAPRP | -0.0138 |
| RRIRPRPPRLPRPRPRPSIGPRP | 0.166 |
| RRIRPRPPRLPRPRPRPATWPRP | 0.253 |
| RRIRMRPPRLPRPRPRPYGGPRP | -1.22 |
| RRIRMRPPRLPRPRPRPTMMPRP | 0.168 |
| RRIRCRPPRLPRPRPRPTQWPRP | 0.202 |
| RRIRMRPPRLPRPRPRPCVSPRP | -0.0589 |
| RRIRFRPPRLPRPRPRPFPCPRP | -0.151 |
| RRIRPRPPRLPRPRPRPWKSPRP | 0.0643 |
| RRIRVRPPRLPRPRPRPNQSPRP | 0.00904 |
| RRIRIRPPRLPRPRPRPYWDPRP | -0.143 |
| RRIRDRPPRLPRPRPRPYYQPRP | -1.03 |
| RRIRSRPPRLPRPRPRPRYSPRP | -0.232 |

| Sequence | shrunken log2 fold change |
| --- | --- |
| RRIRLRPPRLPRPRPRPNSIPRP | -0.0133 |
| RRIRRRPPRLPRPRPRPRECPRP | -0.12 |
| RRIRFRPPRLPRPRPRPTQKPRP | 0.94 |
| RRIRERPPRLPRPRPRPECRPRP | 0.0354 |
| RRIRDRPPRLPRPRPRPCPTPRP | 0.131 |
| RRIRVRPPRLPRPRPRPEEHPRP | -0.0681 |
| RRIRIRPPRLPRPRPRPMKSPRP | -0.161 |
| RRIRHRPPRLPRPRPRPTDRPRP | 0.0577 |
| RRIRCRPPRLPRPRPRPPQYPRP | -0.0607 |
| RRIRRRPPRLPRPRPRPGGIPRP | 0.0225 |
| RRIRARPPRLPRPRPRPDIAPRP | 0.668 |
| RRIRIRPPRLPRPRPRPTVHPRP | 0.0548 |
| RRIRCRPPRLPRPRPRPRQNPRP | 0.226 |
| RRIRMRPPRLPRPRPRPSICPRP | -0.176 |
| RRIRHRPPRLPRPRPRPHIWPRP | -0.835 |
| RRIRGRPPRLPRPRPRPSHVPRP | -0.141 |
| RRIRYRPPRLPRPRPRPFWIPRP | -0.0013 |
| RRIRMRPPRLPRPRPRPYDEPRP | 0.0491 |
| RRIRERPPRLPRPRPRPFHCPRP | -0.175 |
| RRIRARPPRLPRPRPRPKWCPRP | 0.321 |
| RRIRWRPPRLPRPRPRPDNKPRP | -0.571 |
| RRIRYRPPRLPRPRPRPGYAPRP | -0.456 |
| RRIRYRPPRLPRPRPRPVSMPRP | -0.00201 |
| RRIRHRPPRLPRPRPRPPWSPRP | 0.093 |
| RRIRCRPPRLPRPRPRPTTKPRP | -0.0602 |

| Sequence | shrunken log2 fold change |
| --- | --- |
| RRIRLRPPRLPRPRPRPWTHPRP | -0.207 |
| RRIRWRPPRLPRPRPRPTSDPRP | -0.0119 |
| RRIRGRPPRLPRPRPRPVIRPRP | 0.177 |
| RRIRDRPPRLPRPRPRPAGWPRP | 1.05 |
| RRIRYRPPRLPRPRPRPPNQPRP | -0.44 |
| RRIRYRPPRLPRPRPRPMMQPRP | -1.94 |
| RRIRKRPPRLPRPRPRPHASPRP | 0.073 |
| RRIRQRPPRLPRPRPRPMMWPRP | 0.0311 |
| RRIRFRPPRLPRPRPRPRQFPRP | -0.0547 |
| RRIRDRPPRLPRPRPRPRVIPRP | -0.305 |
| RRIRGRPPRLPRPRPRPADRPRP | 1.07 |
| RRIRCRPPRLPRPRPRPWPQPRP | -0.0463 |
| RRIRYRPPRLPRPRPRPEFQPRP | -0.47 |
| RRIRIRPPRLPRPRPRPQNFPRP | 0.0159 |
| RRIRRRPPRLPRPRPRPRFMPRP | 0.055 |
| RRIRARPPRLPRPRPRPPWCPRP | 0.373 |
| RRIRSRPPRLPRPRPRPGVLPRP | 0.0866 |
| RRIRKRPPRLPRPRPRPNGEPRP | 0.189 |
| RRIRYRPPRLPRPRPRPRHMPRP | -0.55 |
| RRIRSRPPRLPRPRPRPRVGPRP | 0.578 |
| RRIRVRPPRLPRPRPRPKDQPRP | 0.0584 |
| RRIRKRPPRLPRPRPRPWLRPRP | 0.143 |
| RRIRRRPPRLPRPRPRPVERPRP | -0.049 |
| RRIRIRPPRLPRPRPRPFLRPRP | -0.2 |
| RRIRQRPPRLPRPRPRPNTTPRP | 0.15 |
